Literature values in patent US20090074843A1, “Use of epi-hne 1-4” (priority 2004, published 2009).

Assays:
[1] = chloramineT, up to 50 mol-equivalents
Human Serum Plasmin = Human Serum Plasmin (Homo sapiens, UniProt P00747); settings: Human Serum Plasmin vs Elastase
Human Plasma Factor Xa = Human Plasma Factor Xa (Homo sapiens, UniProt P00742); settings: Human Plasma Factor Xa vs Elastase
Human Urine Urokinase = Human Urine Urokinase (Homo sapiens, UniProt P00749); settings: Human Urine Urokinase vs Elastase
Kallikrein = Kallikrein (Homo sapiens, UniProt P03952); settings: Human Serum Kallikrein vs Elastase
[2] = test system: Human Pancreatic Chymotrypsin; settings: Human Pancreatic Chymotrypsin vs Elastase
Thrombin = Thrombin (Homo sapiens, UniProt P00734); settings: Human Serum Thrombin vs Elastase
[3] = biological target: T1, human neutrophil elastase (Homo sapiens, UniProt P08246); settings: comparison values
T1 sequence (P08246 30-267): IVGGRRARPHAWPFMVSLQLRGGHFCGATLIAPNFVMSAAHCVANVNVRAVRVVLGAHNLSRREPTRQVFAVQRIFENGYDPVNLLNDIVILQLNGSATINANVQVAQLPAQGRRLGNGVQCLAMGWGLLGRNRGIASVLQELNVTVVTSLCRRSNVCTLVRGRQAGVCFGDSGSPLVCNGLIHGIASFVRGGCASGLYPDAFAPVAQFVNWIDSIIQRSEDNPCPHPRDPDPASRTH

Human Plasma Factor Xa, sequence (P00742 235-488 limits assumed): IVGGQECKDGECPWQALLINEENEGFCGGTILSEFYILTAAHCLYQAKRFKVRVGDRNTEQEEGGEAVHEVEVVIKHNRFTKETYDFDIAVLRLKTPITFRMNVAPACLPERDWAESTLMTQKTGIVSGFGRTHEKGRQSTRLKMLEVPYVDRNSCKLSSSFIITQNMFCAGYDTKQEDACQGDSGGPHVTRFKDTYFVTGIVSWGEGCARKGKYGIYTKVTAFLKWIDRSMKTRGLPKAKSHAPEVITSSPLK
Human Plasma Factor Xa, sequence (P00742 41-179 partner limits assumed): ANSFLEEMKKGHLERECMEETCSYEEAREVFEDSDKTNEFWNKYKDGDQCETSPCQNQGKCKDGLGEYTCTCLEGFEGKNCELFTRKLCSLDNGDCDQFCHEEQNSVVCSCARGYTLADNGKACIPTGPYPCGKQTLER
Human Serum Plasmin, sequence (P00747 581-810 limits assumed): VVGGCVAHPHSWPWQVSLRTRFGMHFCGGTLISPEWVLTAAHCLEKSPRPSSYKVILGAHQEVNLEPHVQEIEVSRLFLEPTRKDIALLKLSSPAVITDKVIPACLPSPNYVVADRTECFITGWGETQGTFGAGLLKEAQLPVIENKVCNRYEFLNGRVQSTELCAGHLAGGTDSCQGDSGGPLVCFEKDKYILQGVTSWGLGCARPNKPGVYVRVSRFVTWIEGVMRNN
Human Serum Plasmin, sequence (P00747 98-580 partner limits assumed): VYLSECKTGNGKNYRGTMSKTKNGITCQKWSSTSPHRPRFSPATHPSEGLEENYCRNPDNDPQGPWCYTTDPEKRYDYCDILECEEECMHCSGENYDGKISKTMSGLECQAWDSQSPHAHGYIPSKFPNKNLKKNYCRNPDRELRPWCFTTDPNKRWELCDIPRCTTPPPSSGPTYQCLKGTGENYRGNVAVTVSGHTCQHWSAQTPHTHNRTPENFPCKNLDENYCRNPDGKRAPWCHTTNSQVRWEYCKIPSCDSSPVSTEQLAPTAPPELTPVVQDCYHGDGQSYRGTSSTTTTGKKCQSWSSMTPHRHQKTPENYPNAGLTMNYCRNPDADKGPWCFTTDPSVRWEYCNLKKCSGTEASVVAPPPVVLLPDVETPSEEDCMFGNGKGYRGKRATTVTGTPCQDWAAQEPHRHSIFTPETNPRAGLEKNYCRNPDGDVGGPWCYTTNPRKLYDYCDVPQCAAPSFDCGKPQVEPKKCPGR
Kallikrein, sequence (P03952 391-638 limits assumed): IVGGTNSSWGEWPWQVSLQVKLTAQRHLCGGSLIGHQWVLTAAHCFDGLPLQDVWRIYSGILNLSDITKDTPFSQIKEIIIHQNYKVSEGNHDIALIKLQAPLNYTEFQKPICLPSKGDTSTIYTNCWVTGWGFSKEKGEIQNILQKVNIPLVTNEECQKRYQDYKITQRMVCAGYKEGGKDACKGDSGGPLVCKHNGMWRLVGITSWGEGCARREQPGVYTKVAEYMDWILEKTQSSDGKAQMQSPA
Kallikrein, sequence (P03952 20-390 limits assumed): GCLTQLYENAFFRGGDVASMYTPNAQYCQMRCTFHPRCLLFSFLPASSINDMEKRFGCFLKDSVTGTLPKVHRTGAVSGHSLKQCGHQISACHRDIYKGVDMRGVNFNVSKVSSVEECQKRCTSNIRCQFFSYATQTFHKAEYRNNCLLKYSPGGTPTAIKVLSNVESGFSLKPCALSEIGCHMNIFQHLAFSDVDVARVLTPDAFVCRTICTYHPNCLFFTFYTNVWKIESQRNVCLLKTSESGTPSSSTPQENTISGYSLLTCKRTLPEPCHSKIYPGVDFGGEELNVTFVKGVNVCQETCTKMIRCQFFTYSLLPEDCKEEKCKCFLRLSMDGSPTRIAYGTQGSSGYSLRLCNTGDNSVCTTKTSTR

## AAT: naturally occurring elastase inhibitor, serum protease inhibitor [reference compound]
[1]
  resistance to oxidation (retention of activity): destroy the activity

## EPI-HNE4: 56 amino acid protein (SEQ ID NO: 1) derived from second Kunitz type domain of human inter-alpha-inhibitor light chain (ITI-D2); elastase inhibitor (EACNLPIVRGPCIAFFPRWAFDAVKGKCVLFPYGGCQGNGNKFYSEKECREYCGVP; P. pastoris; EPI-HNE4 N-terminal modified to facilitate secretion)
Human Serum Plasmin
  selectivity in Ki values: more than 10^6
Human Plasma Factor Xa
  selectivity in Ki values: more than 10^6
Human Urine Urokinase
  selectivity in Ki values: more than 10^6
Kallikrein
  selectivity in Ki values: more than 10^6
[2]
  selectivity in Ki values: more than 10^6
Thrombin
  selectivity in Ki values: more than 10^6

B1: SLPI: naturally occurring elastase inhibitor, serum protease inhibitor (protein, UniProt P03973 26-132, looked up)
Antileukoproteinase: SGKSFKAGVCPPKKSAQCLRYKKPECQSDWQCPGKKRCCPDTCGIKCLDPVDTPNPTRRKPGKCPVTYGQCLMLNPPNFCEMDGQCKRDLKCCMGMCGKSCVSPVKA
[1]
  resistance to oxidation (retention of activity): destroy the activity
[3]
  Kd: 100 nM
